B1: CPEB3 Ribozyme (parent)
chain: UAACAGGGGGCCACAGCAGAAGCGUUCACGUCGCAGCCCCUGUCAGAUUCUGGUGAAUCUGCGAAUUCUGCUGUAUAUCUC

Variants of B1 are the subject of this series. The series is described as follows: self-cleavage, relative activity (ratio to wild type); higher = more cleavage; in vitro, sequencing. Put shortly: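 Libraries of CPEB3 self-cleaving ribozyme mutants came from rounds of error-prone PCR and carried barcodes, which DNA sequencing matched to variants. In vitro transcription used T7 RNA polymerase at 37°C for 5 hours, with a further 15 min in DNase I before EDTA stopped the reaction; the ribozymes cleaved during both steps. The RNA was reverse transcribed with template switching and sequenced on Illumina. Relative activity is the cleaved/total read fraction of a variant divided by that of the unmutated ribozyme, averaged over three batches with at least 5 reads.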
With U43A U76C, the self-cleavage was 1.14.
For A56U U74C, the self-cleavage was 1.06.
Regarding C34G U66C, the self-cleavage amounted to 0.23.
For U43C A47C, the self-cleavage was determined as 0.06.
Under U67A U74C stands 0.92.
With C29A U49C, the self-cleavage is 0.29.
Under U1A U74C stands 1.18.
Under U25A G30C stands 0.26; under A28U A35U, 0.35.
As for U58G U69C, the figure is 0.2; as for G36U A65U, 0.06.
In the case of G9U U80A, the self-cleavage was 0.26.
Take U54G G73A: the self-cleavage stood at 1.17.
As for G22A A28C, the figure is 0.21.
On to A5U U76A, for which the self-cleavage was 1.12.
Regarding A2U U69A, the self-cleavage is 0.52.
Take A21G U78C: the self-cleavage was 0.58.
As for C59U U67A, the figure is 0.28; as for G33A A35G, 0.39.
For the variant U26G C27U, the self-cleavage was determined as 0.63.
Under C39U G46U stands 0.11; under C14A A28U, 0.76.
Under G9A U66A stands 0.11.
As for A20U C40A, the figure is 0.23.
Turning to A3G U51G, the self-cleavage is 0.98.
With A28G U41G, the self-cleavage was 0.15.
Under A28G U41A stands 0.27.
Under U58A A65G stands 0.17; under G52A U67A, 0.51; under U58C U76A, 0.68.
Under U41C U80C stands 1.04.
Take U25A U49C: the self-cleavage is 0.22.
Consider A21U U72C, for which the self-cleavage came to 0.53.
For G22U U66G, the self-cleavage was 0.17.
C32A: the self-cleavage came out at 0.29.
Regarding A2G U67C, the self-cleavage turned out to be 0.26.
For G42U U49C, the self-cleavage is 0.02.
C37U G73A: the self-cleavage came out at 1.43.
Under U43G U49C stands 0.28; under G10A C32A, 0.06; under G9A A77U, 0.23.
Take C11A A75U: the self-cleavage is 0.4.
As for C23U G52A, the self-cleavage was 0.57.
For U54G G63U, the self-cleavage is 1.03.
For the variant A64U U69G, the self-cleavage came to 0.4.
Under A21U A56U stands 0.2; under A35G A75G, 1.31.
Consider U66G, for which the self-cleavage was 0.48.
Under A5C A57G stands 0.9; under G10C C12A, 0.44; under G9C A65G, 0.32.
In the case of A15C U31C, the self-cleavage is 0.6.
Under A3G A57G stands 0.86.
In the case of C11U U51G, the self-cleavage came out at 0.35.
As for C34G U48C, the figure is 0.21; as for G9U G53U, 0.36.
As for A13U A21C, the self-cleavage stood at 0.37.
As to G42A U66C, the self-cleavage is 0.38.
U66C U69C: the self-cleavage was 0.34.
As for G6A G19C, the figure is 0.42; as for G9A A57U, 0.15; as for A3U A13U, 1.16.
For the variant C39U A75G, the self-cleavage came out at 0.97.
As for U26C A28U, the figure is 0.29.
As for G61C U66C, the figure is 0.54; as for A2U A35C, 0.85.
A21G A45C: the self-cleavage was 0.25.
In the case of G53A G55C, the self-cleavage turned out to be 1.01.
For the variant G22C U74G, the self-cleavage worked out at 0.19.
Under U1A A21U stands 0.27.
Under A56U U72C stands 0.81; under U25G U41C, 0.4.
On to U25A U78A, for which the self-cleavage is 0.19.
Under A2U U43C stands 0.47; under A18G C81A, 0.55; under A35U A45U, 0.32.
Consider U48C U80A, for which the self-cleavage turned out to be 0.68.
With U54C C62U, the self-cleavage came out at 0.18.
As to A15G A77G, the self-cleavage was 1.15.
With C39G C62U, the self-cleavage turned out to be 0.08.
In the case of C37A, the self-cleavage is 0.28.
Under U72C U78C stands 1.15; under U58G A64U, 0.17; under U51G U67C, 0.17.
A64G A65G: the self-cleavage was 0.28.
Take A5U C59G: the self-cleavage was 0.37.
For C23G C29G, the self-cleavage was 0.08.
Regarding A56G C81G, the self-cleavage came out at 1.22.
Consider U69G A77U, for which the self-cleavage came out at 0.27.
Under C38U U76C stands 1.01.
Under G36C U48C stands 0.4; under A35C U69G, 0.62.
For the variant U51A G61A, the self-cleavage came out at 1.01.
Under A5U U31A stands 0.5; under U43C G52C, 0.77; under G6U C32U, 0.08.
As for U49A U76C, the figure is 0.69; as for U67C G70C, 0.39; as for A57G C81U, 1.13.
For A20U U76A, the self-cleavage came to 0.25.
As to U54A G73A, the self-cleavage was determined as 1.25.
Take A21G A64U: the self-cleavage was found to be 0.26.
As to C17A A47U, the self-cleavage worked out at 0.44.
Regarding A3U U49A, the self-cleavage amounted to 0.47.
As for G52C G70U, the figure is 0.53.
Under G53A U80C stands 1.17; under A35U G63U, 0.52.
Consider C11G A77G, for which the self-cleavage amounted to 0.64.
In the case of A21C A45G, the self-cleavage is 0.41.
As for C17U U78C, the figure is 0.63; as for A3C U60C, 0.83; as for A3G A5U, 1.04.
As for A13G U80G, the figure is 0.75; as for A20G U80G, 1.14.
Under C34G U78A stands 0.26; under U69C C79G, 0.72; under A3G C17G, 0.55.
Regarding C62A U66A, the self-cleavage was determined as 0.48.
Under A45U C50A stands 0.16; under A45U C50G, 0.06.
Under U58C G61U stands 0.21.
Under C23U A64G stands 0.26.
In the case of A18U C44U, the self-cleavage came to 0.2.
On to U43C C59A, for which the self-cleavage came to 0.12.
Consider C32U U43A, for which the self-cleavage was determined as 0.43.
As for C59A U69C, the figure is 0.23.
As for A3G C68G, the self-cleavage worked out at 0.47.
With G24A G61A, the self-cleavage was determined as 0.19.
As for G8A C39G, the figure is 0.06; as for A20U U74C, 0.33.
As for G7A U51A, the figure is 0.35.
As for A47G U80A, the figure is 1.13; as for G30C A65U, 0.3; as for C11G G42U, 0.37.
Regarding A13U A65G, the self-cleavage was 0.61.
Under G33U A65U stands 0.13; under C38A U72A, 0.34; under C17U C62A, 0.11.
Turning to A2G G10A, the self-cleavage amounted to 0.41.
As to A20C U66G, the self-cleavage was found to be 0.45.
As for U51G A77G, the figure is 1.1; as for A20U U31G, 0.23; as for C34U U76A, 0.5.
With A64C A65U, the self-cleavage is 0.09.
Under U58C A65U stands 0.21; under G16C U51G, 0.52.
As for C11G A64G, the self-cleavage was found to be 0.4.
Turning to C11U U48A, the self-cleavage came out at 0.24.
Take A5U G63A: the self-cleavage came out at 1.06.
As for G36U U51G, the figure is 0.15.
As for C23G A75G, the figure is 0.14.
As for C11A U72A, the self-cleavage was 0.15.
Turning to U60A U66A, the self-cleavage was determined as 0.18.
On to C40G A77G, for which the self-cleavage came to 0.08.
Under U78A U80C stands 1.07; under A13C A64U, 0.4; under U49C U78C, 0.42.
Take U26G U72C: the self-cleavage was determined as 0.31.
For the variant G61A U78C, the self-cleavage came to 0.62.
Take A45G G61C: the self-cleavage came out at 0.23.
Turning to U78A C81U, the self-cleavage turned out to be 0.8.
As for C34U U41A, the self-cleavage stood at 0.4.
Under U41A U72G stands 0.21; under A15U C40U, 0.55; under A28U G33A, 0.2.
Under A57C G63A stands 0.58.
With C39U U72G, the self-cleavage is 1.06.

For the origin of these results see the RNAGym collection of RNA variant scans (doi:10.1093/nar/gkz1192).
